Results: patent US20210246217A1 (LEADARTIS S L, published 2021)

Tests used:
[1] = molecular target: murine 4-1BB on the cell surface (mouse) (UniProt P20334); assay: cell-based or functional assay
[2] = molecular target: T1, recombinant mouse TNFSF9 (4-1BBL) (mouse, UniProt P41274 104-309, limits assumed); assay: competition ELISA on immobilized m4-1BB
T1 construct: It was detected through a tag in FACS and carried the CF488A label in RICS; also called m4-1BBL; recombinant soluble mouse 4-1BBL
T1 sequence (looked up): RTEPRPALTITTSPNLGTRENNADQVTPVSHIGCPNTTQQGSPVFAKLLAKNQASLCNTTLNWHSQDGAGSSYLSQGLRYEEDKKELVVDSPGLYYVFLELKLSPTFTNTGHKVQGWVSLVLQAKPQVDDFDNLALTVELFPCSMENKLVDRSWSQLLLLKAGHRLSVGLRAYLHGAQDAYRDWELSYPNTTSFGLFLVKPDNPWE
Protocol: Both m4-1BB (3 μg/ml) or hEGFR (5 μg/ml) were immobilized on Maxisorp ELISA plates (NUNC Brand Products, Roskilde, Denmark) overnight at 4° C. After washing and blocking with 200 μl PBS-5% BSA, 100 μl of conditioned media or purified protein solution at 1 μg/ml were added and incubated for 1 hour at room temperature. The wells were washed for three times with PBS0.05% Tween-20, and 100 μl of anti-c-myc mAh or anti-FLAG mAh were added for 1 hour incubation at room temperature. The plate was washed as above described and 100 μl of HRP-conjugated goat anti-mouse IgG were added to each well. Afterwards, the plate was washed and developed using OPD (Sigma-Aldrich). For competition ELISA, m4-1BB (3 μg/ml) was immobilized overnight at 4° C. After washing and blocking, recombinant m4-1BBL was added at desired concentration to the wells for 1 hour. Afterwards, purified antibody solution was serially diluted in blocking buffer, added to the wells and incubated for 1 hour at room temperature. Following standard washing steps, anti-FLAG mAh solution was added for 1 hour. After washing HRP-conjugated goat anti-mouse IgG was added and developed using OPD.

human CEA (hCEA) = molecular target: T2, human CEA (hCEA) (human, UniProt P06731 35-685, limits assumed); assay: BLI, m4-1BB-coated biosensors, hCEA in solution
T2 construct: also called carcinoembryonic antigen
T2 sequence (looked up): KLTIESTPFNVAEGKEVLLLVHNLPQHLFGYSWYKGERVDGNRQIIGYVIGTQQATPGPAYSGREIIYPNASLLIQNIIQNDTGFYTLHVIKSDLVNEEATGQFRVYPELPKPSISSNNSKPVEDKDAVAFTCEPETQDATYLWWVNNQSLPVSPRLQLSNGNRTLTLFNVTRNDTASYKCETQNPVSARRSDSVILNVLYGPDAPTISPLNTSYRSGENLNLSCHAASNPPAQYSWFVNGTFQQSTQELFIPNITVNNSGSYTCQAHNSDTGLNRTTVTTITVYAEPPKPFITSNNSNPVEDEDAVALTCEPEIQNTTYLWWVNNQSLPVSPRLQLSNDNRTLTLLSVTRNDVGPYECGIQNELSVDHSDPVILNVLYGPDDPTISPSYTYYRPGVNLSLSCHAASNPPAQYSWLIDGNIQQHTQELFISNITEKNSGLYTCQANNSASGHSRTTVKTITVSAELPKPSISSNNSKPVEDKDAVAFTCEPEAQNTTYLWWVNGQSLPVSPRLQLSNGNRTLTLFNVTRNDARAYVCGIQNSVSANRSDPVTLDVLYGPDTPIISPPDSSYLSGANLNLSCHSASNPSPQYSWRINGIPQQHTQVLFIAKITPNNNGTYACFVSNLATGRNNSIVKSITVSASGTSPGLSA
Protocol: FIG. 26. Functional characterization of purified 1D8^{N/C}CEA.1 trimerbody. Biolayer interferometry (BLI)-derived sensorgrams from the interactions between immobilized m4-1BB and 1D8^{N/C}CEA. 1 at 4 or 2 nM. Experimental responses are traced in black, and fitting curves are in gray (A). […] 1 bispecificity towards biosensors coated with m4-1BB and hCEA in solution (B and C). Following association with either 1D8^{N/C}CEA.1 or 1D8^N18 (sample indicated with arrows) or kinetics buffer only (sample indicated with arrows), biosensors were transferred into 50 nM of hCEA (black and red) or kinetics buffer only (blue and green).
The ability of 1D8^{N/C}CEA.1 to bind biosensor-immobilized m4-1BB and hCEA in solution at the same time was investigated using biolayer interferometry (BLI) on an Octet RED96 system (Fortebio, Menlo Park, Calif., USA). AR2G biosensors (Fortebio) were activated using s-NHS and EDC, and then coated with 10 μg/mL m4-1BB in 10 mM sodium acetate at pH 6 for 20 minutes, followed by quenching with ethanolamine. After 10 minutes of equilibration in kinetics buffer (PBS with 0.1% BSA and 0.05% Tween20), the coated biosensors were incubated in kinetics buffer containing 4 nM of 1D8^N18, 1D8^{N/C}CEA. 1, or only kinetics buffer for one hour. […]

## rat IgG2a anti-mouse 4-1BB (clone 1D8) (antibody)
[1]
  lateral mobility at the plasma membrane (diffusion coefficient, RICS), before clustering: 1.5 µm^2/sec
  lateral mobility at the plasma membrane (diffusion coefficient, RICS), in clusters: 0.35 µm^2/sec

B1: mouse 4-1BB:hFc chimera (m4-1BB) (Fc fusion, UniProt P20334 24-187, looked up)
chain: VQNSCDNCQPGTFCRKYNPVCKSCPPSTFSSIGGQPNCNICRVCAGYFRFKKFCSSTHNAECECIEGFHCLGPQCTRCEKDCRPGQELTKQGCKTCSLGTFNDQNGTGVCRPWTNCSLDGRSVLKTGTTEKDVVCGPPVVSFSPSTTISVTPEGGPGGHSLQVL
notes: Bought from R&D Systems; also called murine 4-1BB in fusion with human Fc; not shown: human Fc
[2]
  binding result: binds
Human CEA (hCEA)
  binding result: no binding (tested: 50 nM of hCEA)
